The values below come from patent US20240076386A1 (Pfizer, published 2024).

In test [1] the target is T1, cynomolgus monkey E-selectin, cell-surface expressed (cynomolgus monkey, UniProt P16581 22-610 (human entry)).
T1 construct: also called CHO-cynomolgus monkey E-selectin cells; cynomolgus monkey CHO-E
T1 chain: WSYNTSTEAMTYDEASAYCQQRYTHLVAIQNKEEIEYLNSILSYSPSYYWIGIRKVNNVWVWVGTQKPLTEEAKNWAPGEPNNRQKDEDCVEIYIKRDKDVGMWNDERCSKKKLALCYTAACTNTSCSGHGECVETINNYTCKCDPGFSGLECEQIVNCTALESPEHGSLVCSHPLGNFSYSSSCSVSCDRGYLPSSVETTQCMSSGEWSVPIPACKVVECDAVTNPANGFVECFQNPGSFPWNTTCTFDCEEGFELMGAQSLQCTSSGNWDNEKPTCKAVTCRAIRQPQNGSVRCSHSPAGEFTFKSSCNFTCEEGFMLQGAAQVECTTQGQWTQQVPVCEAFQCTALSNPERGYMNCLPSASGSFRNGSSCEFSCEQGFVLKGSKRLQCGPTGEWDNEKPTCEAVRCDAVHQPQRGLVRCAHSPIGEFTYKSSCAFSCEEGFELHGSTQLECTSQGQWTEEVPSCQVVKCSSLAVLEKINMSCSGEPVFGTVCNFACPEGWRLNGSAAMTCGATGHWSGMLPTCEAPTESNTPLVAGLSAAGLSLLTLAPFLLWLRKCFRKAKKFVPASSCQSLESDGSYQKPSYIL
The test is described as follows: competition ELISA on CHO cells vs sialyl Lewis ligand-PAA-biotin/SA-HRP. The method, then:
In a static ligand cellular adhesion assay, horse radish peroxidase (HRP) conjugated E-selectin ligand (sialyl Lewis antigen) and E-selectin antibodies compete for binding to human or cynomolgus E-selectin expressed on Chinese hamster ovary (CHO) cells. The ability of anti-E-selectin antibodies to neutralize ligand binding was assessed in a static neutralization assay using a competition enzyme-linked immunosorbent assay (ELISA) to evaluate the neutralization of the sialyl Lewis antigen to Chinese hamster ovary cells (CHO) engineered to express human or cynomolgus monkey E-selectin.
CHO cells expressing E-selectin were seeded at 12,500 cells per well into a 96 well tissue culture plate and incubated at 37° C., 5% CO₂ for 48 hours to form a confluent monolayer. Plates were subsequently washed twice with 200 μL of calcium magnesium free PBS. Anti-E-selectin antibodies or an IgG1 isotype control (IgG control) were added to the assay in the presence of a small synthetic conjugate of biotinylated, sialyl Lewis A polyacrylamide (Carbosynth LLC, OS45446) or sialyl Lewis X polyacrylamide (Glycotech, 01-045) with streptavidin/horseradish peroxidase (100 μL total) and incubated at 37° C., 5% CO₂ for 2 hours. Plates were then washed twice with 200 μL of calcium and magnesium free PBS. Following the incubation, the cells were washed twice with 200 μL of wash buffer containing 2 mM of calcium chloride (50 mM TRIS [trisaminomethane], 150 mM sodium chloride; 0.05% polysorbate 20, pH 7.4; 2 mM calcium chloride). Signal was developed by adding 100 μL of 1-Step Ultra TMB substrate (Thermo Scientific, 34028) and incubating for 30 minutes at room temperature. Reactions were stopped using 2 M of sulfuric acid and absorbance was read at 450 nm (Spectramax M5e). Data were analyzed and graphed using GraphPad Prism software (Version 8.0.2).
In general terms: ELISA stands for enzyme-linked immunosorbent assay.

The target in test [2] is T2, recombinant histidine-tagged cynomolgus monkey E-selectin (Sino Biologicals; 190169-C08H) (cynomolgus monkey, UniProt A0A2K5U7H9 22-554).
T2 construct: also called recombinant cynomolgus monkey E-selectin
T2 sequence: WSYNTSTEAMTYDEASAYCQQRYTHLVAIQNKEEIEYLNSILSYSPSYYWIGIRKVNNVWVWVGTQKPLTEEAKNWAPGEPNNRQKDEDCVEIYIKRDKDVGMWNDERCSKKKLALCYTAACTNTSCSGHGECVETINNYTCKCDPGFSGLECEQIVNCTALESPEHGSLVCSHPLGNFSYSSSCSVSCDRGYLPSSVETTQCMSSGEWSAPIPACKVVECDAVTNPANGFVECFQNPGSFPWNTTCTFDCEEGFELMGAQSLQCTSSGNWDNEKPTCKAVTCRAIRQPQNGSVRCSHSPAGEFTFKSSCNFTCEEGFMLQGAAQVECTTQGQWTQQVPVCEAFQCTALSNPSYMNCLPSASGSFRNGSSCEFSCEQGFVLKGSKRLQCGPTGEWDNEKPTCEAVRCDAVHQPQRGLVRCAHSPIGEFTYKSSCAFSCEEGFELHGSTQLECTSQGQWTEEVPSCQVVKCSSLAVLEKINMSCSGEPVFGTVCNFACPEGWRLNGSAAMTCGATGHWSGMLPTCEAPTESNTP
The experiment in a line: competition ELISA, His-tagged E-selectin on Ni-NTA plate vs HRP-conjugated sialyl Lewis A. On the procedure: Recombinant histidine-tagged E-selectin; cynomolgus monkey E-selectin (Sino Biologicals; 190169-C08H) and human E-selectin (Sino Biologicals; 13025-H08H) stock solutions were prepared to a final concentration of 3 μg/mL in phosphate buffered saline (PBS) without calcium and magnesium. One hundred μL per well of the diluted recombinant E-selectin protein was added into a Ni-NTA HisSorb 96 well plate (Qiagen, 35061) and plates were incubated on an orbital shaker at room temperature for 2 hours. Sialyl Lewis A polyacrylamide biotin, a synthetic E-selectin ligand (GlycoTech corporation 01-044), was conjugated to streptavidin HRP (horse radish peroxidase) (Ultra Streptavidin HRP, Thermo Scientific N504) and diluted in assay diluent containing 2 mM calcium chloride (BD OptEIA buffer; BD Biosciences, 555213).
Following the incubation, the plates were washed 5 times with 200 μL of wash buffer containing 2 mM of calcium chloride (50 mM TRIS [trisaminomethane]; 150 mM sodium chloride, 0.05% polysorbate 20, pH 7.4; 2 mM of calcium chloride). […] The final antibody concentration ranged from 200 nM to 0.09 nM and the final concentration of HRP conjugated Sialyl Lewis A was 5 μg/mL. Plates were washed as mentioned before, and 100 μL per well of 1-Step Ultra TMB substrate (Thermo Scientific, 34028) was added and incubated for 5 minutes at room temperature. Reactions were stopped with 100 μl of 2M sulfuric acid and absorbance read at 450 nm (Spectramax M5e). Data were analyzed and graphed using GraphPad Prism software (Version 8.0.2).

Residue numbers refer to the chain shown, from its start.

B1: optimized anti-E-selectin antibody 1282 (antibody, human IgG1, kappa, V domains shown)
VH: EVQLVESGGGLVQPGGSLRLSCAASGYAIRSAYMHWVRQAPGKGLEWVARIDPANGNTIYVDSVEGRFTISADNAKNSAYLQMNSLRAEDTAVYYCAMDLYSTSEYWGQGTLVTVSS
VL: DIQMTQSPSSLSASVGDRVTITCKTSQNIERYLNWYQQKPGKAPKLLIYAASSLQSGVPSRFSGSGSGTDFTLTISSLQPEDFATYFCLQDNAWPLTFGQGTKVEIKR
notes: effector-null human IgG1, kappa
Usually IC50 stands for the point on the concentration scale where inhibition reaches its midpoint. For B1, the IC50 was determined as 1.29 nM in test [1] and 3.23 nM in test [2].

B2: optimized anti-E-selectin antibody 1448 (antibody, human IgG1, kappa, V domains shown)
VH: B1 VH with E65K, G66E
VL: B1 VL
notes: as for B1
For the molecule B2, the half-maximal inhibitory concentration (IC50) in test [1] worked out at 1.85 nM; in test [2], 2.74 nM.

B3: optimized anti-E-selectin antibody 1444 (antibody, human IgG1, kappa, V domains shown)
VH: B1 VH with E65T
VL: B1 VL
notes: as for B1
Consider B3, for which the IC50 was 2.65 nM in test [1] and 2.91 nM in test [2].

B4: optimized anti-E-selectin antibody 1284 (antibody, human IgG1, kappa, V domains shown)
VH: B1 VH with D62E
VL: B1 VL
notes: as for B1
As for B4, the IC50 in test [1] came to 1.91 nM; in test [2], 3.39 nM.

B5: anti-E-selectin antibody 0164 chimera (antibody, human IgG1, kappa, V domains shown)
VH: EVQLQQSGAEFGKPGTSVKLSCKVSGYNIRSSYMHWVNQRPGKGLEWIGRIDPANGNTIYAEKFKIKAILTADSSSNTAYMQLSQLKSDDTAIYFCAMDLYSTSEYWGQGVMVTVSS
VL: DIQMTQSPSFLSASVGDRVTINCKTSQNINRYLNWYQQKLGEAPKLLIYNANSLQTGIPSRFSASGSGTDFTLTINSLQPEDVATYFCLQDNSWPLTFGSGTKLEIKR
notes: rat VH/VL on effector-null human IgG1 and human kappa
In the case of B5, the half-maximal inhibitory concentration (IC50) in test [1] worked out at 2.25 nM; in test [2] it was 3.29 nM.
